The values below come from patent US7303876B2 (Applera Corporation, priority 2000, dated 2007).

Assay [1] deals with BoDipy-labeled Casein Conjugate. Nature of the assay: Proteinase K digestion of BoDipy-labeled Casein Conjugate (fluorescence). Format: biochemical. To be noted: one hour, 60° C. From the text:
An assay was developed to measure the activity of Proteinase K with BoDipy-labeled Casein Conjugate (Enz Check Protease Assay Kit, Product number E6638; Molecular Probes, Eugene, Oreg.). The concentration of fluorescent BoDipy moieties in this derivatized conjugate is sufficiently high so that when the protein is intact, the fluorescence of individual moieties is quenched. Upon digestion of the derivatized casein by a protease, however, peptides containing a lower number of BoDipy dye molecules are released, resulting in an increase in fluorescence. To determine an initial dynamic range for an assay, BoDipy-labeled Casein was digested for one hour with a decreasing concentration of Proteinase K as follows. […] Following a one hour incubation at 60° C. with mixing, 100 μL aliquots were transferred to a 96-well optical plate (MicroAmp® Optical 96-Well Reaction Plate, Applied Biosystems, Foster City, Calif.) and the fluorescence was measured in an ABI Prism 7700 spectrophotometer (Applied Biosystems). The background fluorescence was determined by incubating the substrate in buffer without Proteinase K.

The subject of the next assay is slices of liver. As to the kind of experiment: Maceration of liver slices by reaction compositions at 65° C. To be noted: 65° C.; for maceration of liver slice: 1 mg/ml Proteinase K, No Additives. The method, then:
Initially, a series of reaction compositions were analyzed for their ability to disaggregate a biological sample, e.g., slices of liver. These reaction compositions comprised 100 mM Tris, pH 8.0, 20 mM dithiothreitol (DTT), and optionally,1 mg/ml Proteinase K, surfactants (e.g., cationic, nonionic and anionic detergents), chaotropes, or the additive 1-methyl-2-pyrollidinone (Sigma). Each reaction compositions was placed in a tube with a slice of liver and then incubated at 65° C. The tubes were observed periodically to determine which reaction compositions were able to efficiently macerate the sample.

The next assay deals with T1, Proteinase K (Parengyodontium album, UniProt P06873).
T1 construct: purchased Ambion 2546
As to the kind of experiment: Effect of surfactants on Proteinase K digestion of dye-labeled casein substrate. It counts as biochemical. To be noted: water, 0 minutes incubation, ambient temperature. The method, then: To test the effect of cationic surfactants on the activity of Proteinase K, a series of reaction compositions were prepared as follows. Reaction compositions comprised: Casein BoDipy conjugate (1 μg, 10 ng/μL), 10 mM Tris, pH 8, 20 mM CaCl2, 1% surfactant (shown in Table 2 below) and a dilution series of Proteinase K at concentrations of 20 μg/ml, 5 μg/ml, 1.25 μg/ml, 0.31 μg/ml, 0.078 μg/ml, 0.02 μg/ml and 0.005 μg/ml. […] Reaction tubes were incubated at 60° C. in a 96-well optical plate (MicroAmp® Optical 96-Well Reaction Plate, Applied Biosystems) and the amount of released fluorescence was measured at the indicated time points using an ABI Prism 7700.

B1: Proteinase K: protease (subtilisin), Ambion (protein, UniProt P06873 106-384, looked up)
Proteinase K: AAQTNAPWGLARISSTSPGTSTYYYDESAGQGSCVYVIDTGIEASHPEFEGRAQMVKTYYYSSRDGNGHGTHCAGTVGSRTYGVAKKTQLFGVKVLDDNGSGQYSTIIAGMDFVASDKNNRNCPKGVVASLSLGGGYSSSVNSAAARLQSSGVMVAVAAGNNNADARNYSPASEPSVCTVGASDRYDRRSSFSNYGSVLDIFGPGTSILSTWIGGSTRSISGTSMATPHVAGLAAYLMTLGKTTAASACRYIADTANKGDLSNIPFGTVNLLAYNNYQA
On to B1, for which the “lowest Proteinase K concentration with released fluorescence detected” value in assay [1] was found to be 50 ng/mL. Also, in assay [1] (10 μg/ml BoDipy-labeled Casein Conjugate), the fluorescence signal plateau entry is “around 30,000 fluorescence units”. The “maceration of liver slice” value in the assay on slices of liver (2-5 hr) was found to be 0%; in the assay with slices of liver (16-24 hr), 75%. Moreover, the “ability to macerate the liver sample (in words)” value in the assay with slices of liver is listed as “effectively digest the liver tissue, but only after extended incubation”. The “proteolytic activity of Proteinase K without surfactant” value with Proteinase K is given as “high proteolytic activity”.
